Laboratory results: patent US20230383273

Columns and labels:
Assay in all cases: cleavage_in_vitro
[1] = system: T1, OMNI-84 (Porphyrobacter donghaensis); conditions: PAM NNNNGCAA; TXTL
T1 sequence: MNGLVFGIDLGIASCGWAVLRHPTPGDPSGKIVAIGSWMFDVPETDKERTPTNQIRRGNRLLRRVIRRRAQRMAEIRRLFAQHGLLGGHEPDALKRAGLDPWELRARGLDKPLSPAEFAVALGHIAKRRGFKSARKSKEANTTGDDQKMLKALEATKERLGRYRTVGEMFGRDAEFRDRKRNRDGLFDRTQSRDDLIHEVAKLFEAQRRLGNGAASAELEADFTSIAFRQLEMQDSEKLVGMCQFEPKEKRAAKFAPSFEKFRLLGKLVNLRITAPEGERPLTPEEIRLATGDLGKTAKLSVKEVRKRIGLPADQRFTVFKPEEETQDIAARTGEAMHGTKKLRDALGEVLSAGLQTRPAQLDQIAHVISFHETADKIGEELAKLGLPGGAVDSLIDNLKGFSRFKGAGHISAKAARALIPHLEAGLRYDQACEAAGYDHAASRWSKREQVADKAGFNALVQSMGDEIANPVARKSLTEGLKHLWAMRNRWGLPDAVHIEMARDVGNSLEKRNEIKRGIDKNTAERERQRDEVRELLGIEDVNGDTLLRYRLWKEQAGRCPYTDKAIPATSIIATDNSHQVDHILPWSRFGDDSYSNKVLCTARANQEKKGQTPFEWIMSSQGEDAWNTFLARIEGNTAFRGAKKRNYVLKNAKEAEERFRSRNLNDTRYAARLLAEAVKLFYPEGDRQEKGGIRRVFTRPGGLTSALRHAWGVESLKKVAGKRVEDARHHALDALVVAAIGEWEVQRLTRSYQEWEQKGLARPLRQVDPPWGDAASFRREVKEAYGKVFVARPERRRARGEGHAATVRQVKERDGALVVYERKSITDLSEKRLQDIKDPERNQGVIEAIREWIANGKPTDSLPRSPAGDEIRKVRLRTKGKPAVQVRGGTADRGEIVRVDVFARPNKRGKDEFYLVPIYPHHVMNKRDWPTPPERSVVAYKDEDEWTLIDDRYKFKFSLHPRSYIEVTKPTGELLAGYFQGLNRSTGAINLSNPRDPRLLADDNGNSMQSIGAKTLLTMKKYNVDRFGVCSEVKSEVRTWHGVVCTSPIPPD

[2] = system: T2, OMNI-78 (Notoacmeibacter marinus); conditions: PAM NRRNAT; TXTL
T2 sequence: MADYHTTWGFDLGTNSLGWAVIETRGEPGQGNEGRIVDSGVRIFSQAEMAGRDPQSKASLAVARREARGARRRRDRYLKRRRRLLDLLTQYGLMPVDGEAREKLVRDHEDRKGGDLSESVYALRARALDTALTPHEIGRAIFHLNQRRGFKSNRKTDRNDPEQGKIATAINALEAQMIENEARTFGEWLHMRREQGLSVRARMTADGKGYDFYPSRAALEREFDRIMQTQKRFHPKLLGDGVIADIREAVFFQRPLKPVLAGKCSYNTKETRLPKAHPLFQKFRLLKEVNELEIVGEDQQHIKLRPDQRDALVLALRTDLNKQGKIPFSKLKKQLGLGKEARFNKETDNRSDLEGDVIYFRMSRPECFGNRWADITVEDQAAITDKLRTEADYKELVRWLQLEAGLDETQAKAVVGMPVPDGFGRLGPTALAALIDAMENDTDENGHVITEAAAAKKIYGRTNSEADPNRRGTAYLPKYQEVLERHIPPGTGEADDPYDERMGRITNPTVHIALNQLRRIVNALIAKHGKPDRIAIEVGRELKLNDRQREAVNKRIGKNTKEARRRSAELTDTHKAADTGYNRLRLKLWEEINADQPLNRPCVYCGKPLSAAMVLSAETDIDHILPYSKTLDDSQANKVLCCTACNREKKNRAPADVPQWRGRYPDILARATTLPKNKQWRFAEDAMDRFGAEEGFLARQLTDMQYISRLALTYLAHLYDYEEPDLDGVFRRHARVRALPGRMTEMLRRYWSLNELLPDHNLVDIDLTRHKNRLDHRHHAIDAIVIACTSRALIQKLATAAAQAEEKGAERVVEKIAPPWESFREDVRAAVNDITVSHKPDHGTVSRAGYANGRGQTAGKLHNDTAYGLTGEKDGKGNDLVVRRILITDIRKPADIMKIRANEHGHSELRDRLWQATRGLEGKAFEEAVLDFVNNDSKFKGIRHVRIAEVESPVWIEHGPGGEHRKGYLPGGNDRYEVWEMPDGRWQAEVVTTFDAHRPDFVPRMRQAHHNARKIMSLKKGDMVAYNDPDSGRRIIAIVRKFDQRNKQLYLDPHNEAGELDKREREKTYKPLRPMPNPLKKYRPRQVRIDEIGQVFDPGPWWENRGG

[3] = system: T3, OMNI-68 (Gemmiger sp. An50); conditions: PAM NNNVTA; TXTL
T3 sequence: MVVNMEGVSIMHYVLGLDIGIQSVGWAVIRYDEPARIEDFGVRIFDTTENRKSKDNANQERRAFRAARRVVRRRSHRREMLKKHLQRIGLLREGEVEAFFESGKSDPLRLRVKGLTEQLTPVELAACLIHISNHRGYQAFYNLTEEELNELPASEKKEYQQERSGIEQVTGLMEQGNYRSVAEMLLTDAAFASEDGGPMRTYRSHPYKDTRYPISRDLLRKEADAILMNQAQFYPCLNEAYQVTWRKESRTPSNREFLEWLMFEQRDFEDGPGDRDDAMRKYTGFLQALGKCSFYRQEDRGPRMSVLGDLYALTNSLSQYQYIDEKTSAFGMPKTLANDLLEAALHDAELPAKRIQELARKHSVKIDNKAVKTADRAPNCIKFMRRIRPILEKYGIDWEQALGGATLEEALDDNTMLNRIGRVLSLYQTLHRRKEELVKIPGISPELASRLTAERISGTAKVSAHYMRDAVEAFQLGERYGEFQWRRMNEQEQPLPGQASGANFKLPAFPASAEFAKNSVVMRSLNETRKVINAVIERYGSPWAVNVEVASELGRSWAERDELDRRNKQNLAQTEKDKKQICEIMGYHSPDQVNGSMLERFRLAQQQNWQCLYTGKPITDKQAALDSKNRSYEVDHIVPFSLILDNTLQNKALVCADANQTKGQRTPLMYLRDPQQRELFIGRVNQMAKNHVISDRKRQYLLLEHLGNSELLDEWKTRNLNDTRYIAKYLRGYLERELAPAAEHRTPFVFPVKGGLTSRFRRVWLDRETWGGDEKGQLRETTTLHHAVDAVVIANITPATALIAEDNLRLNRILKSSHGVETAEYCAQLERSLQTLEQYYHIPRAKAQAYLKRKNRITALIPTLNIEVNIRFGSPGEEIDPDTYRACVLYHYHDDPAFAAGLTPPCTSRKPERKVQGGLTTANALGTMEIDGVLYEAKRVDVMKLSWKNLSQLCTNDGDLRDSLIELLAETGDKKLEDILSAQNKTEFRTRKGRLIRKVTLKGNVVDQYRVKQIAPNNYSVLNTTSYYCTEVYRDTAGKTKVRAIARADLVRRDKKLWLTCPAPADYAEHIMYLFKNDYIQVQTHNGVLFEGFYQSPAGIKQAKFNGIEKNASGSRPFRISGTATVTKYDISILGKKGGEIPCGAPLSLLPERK

[4] = system: T4, OMNI-75 (Lactococcus sp. 1JSPR-7); conditions: PAM NNGNRA; TXTL
T4 sequence: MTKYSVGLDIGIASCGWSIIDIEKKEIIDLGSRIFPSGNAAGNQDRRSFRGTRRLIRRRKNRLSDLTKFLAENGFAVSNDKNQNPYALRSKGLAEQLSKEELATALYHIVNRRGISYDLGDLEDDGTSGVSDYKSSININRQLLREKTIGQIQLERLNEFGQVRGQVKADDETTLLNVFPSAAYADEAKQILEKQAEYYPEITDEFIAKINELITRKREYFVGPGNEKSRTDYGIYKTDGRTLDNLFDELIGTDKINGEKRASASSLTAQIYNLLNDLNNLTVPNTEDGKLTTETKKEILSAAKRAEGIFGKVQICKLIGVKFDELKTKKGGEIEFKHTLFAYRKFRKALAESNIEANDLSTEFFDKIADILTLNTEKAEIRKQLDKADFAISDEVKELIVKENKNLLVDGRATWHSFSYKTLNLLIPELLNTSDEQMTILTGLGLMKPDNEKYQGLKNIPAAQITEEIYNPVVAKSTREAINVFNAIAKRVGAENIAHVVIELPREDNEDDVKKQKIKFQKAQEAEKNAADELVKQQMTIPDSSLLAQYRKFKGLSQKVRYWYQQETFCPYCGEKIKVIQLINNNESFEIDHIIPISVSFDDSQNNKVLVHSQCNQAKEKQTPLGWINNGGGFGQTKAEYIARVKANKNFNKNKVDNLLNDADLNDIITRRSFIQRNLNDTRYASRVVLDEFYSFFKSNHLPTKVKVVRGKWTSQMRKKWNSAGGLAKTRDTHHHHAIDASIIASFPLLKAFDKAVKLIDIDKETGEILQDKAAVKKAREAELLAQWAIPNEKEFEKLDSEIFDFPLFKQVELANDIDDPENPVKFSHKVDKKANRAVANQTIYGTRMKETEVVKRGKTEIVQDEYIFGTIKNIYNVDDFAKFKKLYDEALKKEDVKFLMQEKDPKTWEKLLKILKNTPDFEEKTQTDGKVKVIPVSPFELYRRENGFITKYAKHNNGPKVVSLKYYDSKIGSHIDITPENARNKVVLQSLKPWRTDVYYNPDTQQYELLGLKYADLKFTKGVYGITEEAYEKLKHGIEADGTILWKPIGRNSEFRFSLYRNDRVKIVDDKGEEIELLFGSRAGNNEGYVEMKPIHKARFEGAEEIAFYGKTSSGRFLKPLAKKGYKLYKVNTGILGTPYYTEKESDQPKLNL

Sequence: GGAAGAGCAGAGCCUUGGUCUCGCCGUGGUUUCCCUACCGAUUUGCCCAUGGUAGGGAAAGUUAUCGGCAAAUCGGUAGGGAAGCCACGGUAACAGAGCUUCACUGUGAAGGAUCAUCCUGAAGGGGAAAUUCCUUAUUGAAGCACUGAUACAGAGCUUCUGUAUUCAAACGACCCUUUCUGAGAUAUCAGAGAGGGUCGUUUUU / GGAAGAGCAGAGCCTTGGTCTCNNNNNNNN / NNNNNNNNGAGACCAAGGCTCTGCTCTTCC
- activity (1-depletion score) [1]: 0.93

Sequence: GGAAGAGCAGAGCCUUGGUCUCGUUGCGGUUGGCCUGCGAGAAAUCGCAGUCCAGCCGUUAACAAGCUGAGAUAUGCACCAGAUAAGGCGCUCGCUCCGGCGAGCGCUUUUUU / GGAAGAGCAGAGCCTTGGTCTCNNNNNNNN / NNNNNNNNGAGACCAAGGCTCTGCTCTTCC
- activity (1-depletion score) [2]: 0.9

Sequence: GGAAGAGCAGAGCCUUGGUCUCGUUUUGGUUCUCUGAUGGGAAACAUCAGAAGUUCUAAGAUAAGGCUUUACGCCGCAGGGUAUGGUGGUAUCCCGAACAAUCCACCGUUUCAGGAAUAGCGCAGCACUGGUUUCCAGUGCUGUUUUU / GGAAGAGCAGAGCCTTGGTCTCNNNNNNNN / NNNNNNNNGAGACCAAGGCTCTGCTCTTCC
- activity (1-depletion score) [3]: 0.88

Sequence: GGAAGAGCAGAGCCUUGGUCUCGUUUUUGUACUCUCAAGAAAUUGAGAAUCUACAAGGAUAAGGCUUUAUGCCGAAAUCAUUAACUCGCCUUUGGGCGAGUUUUUU / GGAAGAGCAGAGCCTTGGTCTCNNNNNNNN / NNNNNNNNGAGACCAAGGCTCTGCTCTTCC
- activity (1-depletion score) [4]: 0.93
